Results as given in publication PMC4465127.

Biological target: LIN-3^EGF (the purified EGF domain from LIN-3) (C. elegans)
Assay: SPR; Biacore 3000; LIN-3 amine-coupled on CM5 chip, sLET-23 injected; steady state, single-site model; 10 mM Hepes pH 8.0, 150 mM NaCl, 3 mM EDTA, 0.005% P-20, room temperature

- Kd: 2 to 4 µM
B1: LET-23 extracellular region (sLET-23) (domain or fragment)
chain: FGNSNAQLWKRCVSPQDCLCSGTTNGISRYGTGNILEDLETMYRGCRRVYGNLEITWIEANEIKKWRESTNSTVDPKNEDSPLKSINFFDNLEEIRGSLIIYRANIQKISFPRLRVIYGDEVFHDNALYIHKNDKVHEVVMRELRVIRNGSVTIQDNPKMCYIGDKIDWKELLYDPDVQKVETTNSHQHCYQNGKSMAKCHESCNDKCWGSGDNDCQRVYRSVCPKSCSQCFYSNSTSSYECCDSACLGGCTGHGPKNCIACSKYELDGICIETCPSRKIFNHKTGRLVFNPDGRYQNGNHCVKECPPELLIENDVCVRHCSDGHHYDATKDVRECEKCRSSSCPKICTVDGHLTNETLKNLEGCEQIDGHLIIEHAFTYEQLKVLETVKIVSEYITIVQQNFYDLKFLKNLQIIEGRKLHNVRWALAIYQCDDLEELSLNSLKLIKTGAVLIMKNHRLCYVSKIDWSSIITSKGKDNKPSLAIAENRDSKLCETEQRVCDKNCNKRGCWGKEPEDCLECKTWKSVGTCVEKCDTKGFLRNQTSMKCERCSPECETCNGLGELDCLTCRHKTLYNSDFGNRMECVHDCPVSHFPTQKNVCEKCHPTCYDNGCTGPDSNLGYGGCKQCKYAVKYENDTIFCLQSSGMNNVCVENDLPNYYISTYDTEGVIETHCEKCSISCKTCSSAGRNVVQNKCVCKHVEYQPNPSERICMDQCPVNSFMVPDTNNTVCKKCHHECDQNYHCANGQSTGCQKCKNFTVFKGDIAQCVSECPKNLPFSNPANGECLDYDIASRQRKTRM
